A word on the Kd: it is the equilibrium constant for the complex coming apart. A word on the EC50: it is the concentration at which the effect is half-maximal.

Numbered stars: 1 amine (or outer) side, 2 acyl side, 3 side chain; on linkers, the order of the positions; unused ones are H or OH. Bridge positions count the residues as written; N and C are the ends. Square brackets hold non-standard residues; d marks the D form. Primed or numbered codes have the meaning given here. MI = Monomer I = ReN, acyclic amine-bearing olefin stapling residue; R7 = (R)-2-(6-heptenyl)alanine, C=CCCCCC[C@@](C)(N[*:1])C(=O)[*:2]; R6 = (R)-2-(5-hexenyl)alanine, C=CCCCC[C@@](C)(N[*:1])C(=O)[*:2]; S6 = (S)-2-(5-hexenyl)alanine, C=CCCCC[C@](C)(N[*:1])C(=O)[*:2]; R4 = (R)-2-(3-butenyl)alanine, C=CCC[C@@](C)(N[*:1])C(=O)[*:2]; MG = Monomer G = RdN, acyclic alkyl-N(Alloc) stapling residue; MC = Monomer C = PyrR, Alloc-pyrrolidine stapling residue; MA = Monomer A (Az), N-Alloc azetidine stapling residue; S7 = C[C@@](CCCCCC=[*:3])(N[*:1])C(=O)[*:2]; R5 = C=CCCC[C@@](C)(N)C(=O)O; S5 = C=CCCC[C@](C)(N)C(=O)O; MB(7) = not defined here

The text below walks through data of patent publication US11198713B2, “Agents modulating beta-catenin functions and methods thereof” (FOG PHARMACEUTICALS, INC., priority 2017, dated 2021).

Experiment [1] addresses T1, biotinylated beta-catenin (Homo sapiens, UniProt P35222).
T1 sequence (P35222 1-781): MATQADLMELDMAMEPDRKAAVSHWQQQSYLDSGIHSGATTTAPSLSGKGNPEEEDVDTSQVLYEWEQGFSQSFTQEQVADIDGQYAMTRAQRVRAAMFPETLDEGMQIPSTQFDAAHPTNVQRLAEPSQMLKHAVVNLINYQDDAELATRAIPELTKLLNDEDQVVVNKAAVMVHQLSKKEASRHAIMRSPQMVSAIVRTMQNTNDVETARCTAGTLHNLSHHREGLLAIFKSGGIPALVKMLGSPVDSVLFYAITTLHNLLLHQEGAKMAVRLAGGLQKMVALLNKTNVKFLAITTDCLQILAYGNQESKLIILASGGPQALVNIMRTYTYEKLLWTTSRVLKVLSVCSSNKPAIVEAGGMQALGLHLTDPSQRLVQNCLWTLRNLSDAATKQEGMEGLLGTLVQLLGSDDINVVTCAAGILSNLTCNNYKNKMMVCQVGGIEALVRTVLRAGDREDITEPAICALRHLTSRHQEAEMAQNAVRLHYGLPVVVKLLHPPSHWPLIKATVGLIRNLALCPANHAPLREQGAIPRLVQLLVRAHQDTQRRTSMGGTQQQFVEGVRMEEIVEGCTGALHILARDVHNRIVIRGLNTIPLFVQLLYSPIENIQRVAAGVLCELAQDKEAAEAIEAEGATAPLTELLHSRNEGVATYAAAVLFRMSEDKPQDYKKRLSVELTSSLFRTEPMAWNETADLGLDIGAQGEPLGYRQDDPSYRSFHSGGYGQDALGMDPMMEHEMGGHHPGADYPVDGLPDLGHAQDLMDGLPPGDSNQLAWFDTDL
The experiment in a line: Surface Plasmon Resonance (Biacore). In kind it is binding. The following applies: Biacore, biotinylated beta-catenin; read-out: Kd. On the procedure:
Additionally or alternatively, binding to beta-catenin may be measured by Surface Plasmon Resonance. In an exemplary assay, approximately 6 nmol dried peptide diluted in buffer (50 mM Tris pH 8.0, 300 mM NaCl, 2% glycerol, 0.5 mM TCEP, 0.5 mM EDTA, 0.005% Tween-20, 1 mg/mL CM Dextran, 0.02% w/v sodium azide) was assayed on a Biacore X100 using the Biacore Biotin CAPture Kit (GE Healthcare) and biotinylated beta-catenin. Results were analyzed using the Biacore X100 Evaluation Software. […] FPO217c (Isomer 2) bound to the armadillo domain of β-catenin with a Kd of 2 nM.
On the technique in general: SPR reads the build-up and loss of mass on a sensor chip optically.

For experiment [2], the target named is T2, full-length beta-catenin (UniProt P35222 2-781, limits assumed).
T2 construct: mature; also called full-length ß-Catenin; β-catenin
T2 sequence (looked up): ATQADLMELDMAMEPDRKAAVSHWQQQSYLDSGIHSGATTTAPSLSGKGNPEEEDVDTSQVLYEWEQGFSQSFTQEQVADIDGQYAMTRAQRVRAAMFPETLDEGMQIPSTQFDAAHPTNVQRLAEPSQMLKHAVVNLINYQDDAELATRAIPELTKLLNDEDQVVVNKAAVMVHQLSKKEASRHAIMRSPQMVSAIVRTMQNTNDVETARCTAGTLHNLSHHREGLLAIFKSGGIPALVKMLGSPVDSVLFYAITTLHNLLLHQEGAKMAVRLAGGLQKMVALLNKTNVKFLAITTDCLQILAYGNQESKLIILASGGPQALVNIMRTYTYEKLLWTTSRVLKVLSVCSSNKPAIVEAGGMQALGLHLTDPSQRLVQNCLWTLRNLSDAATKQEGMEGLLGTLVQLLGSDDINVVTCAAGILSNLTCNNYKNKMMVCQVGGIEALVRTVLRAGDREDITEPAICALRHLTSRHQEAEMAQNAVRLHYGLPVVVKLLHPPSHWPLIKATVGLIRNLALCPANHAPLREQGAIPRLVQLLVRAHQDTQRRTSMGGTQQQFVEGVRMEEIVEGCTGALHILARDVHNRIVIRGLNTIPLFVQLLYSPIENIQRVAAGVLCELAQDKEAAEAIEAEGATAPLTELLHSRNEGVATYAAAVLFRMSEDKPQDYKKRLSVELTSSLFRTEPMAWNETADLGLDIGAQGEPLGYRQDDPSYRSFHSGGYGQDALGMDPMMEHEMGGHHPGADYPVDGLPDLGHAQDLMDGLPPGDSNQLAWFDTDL
The experiment in a line: competition FP, grade of FP EC50 (++: 100-500 nM). On the procedure: (§1) In some embodiments, a competition fluorescence polarization assay is used to assess binding of provided compounds to beta-catenin. In an exemplary procedure, solutions of provided compounds, e.g., provided stapled peptides, were prepared in a buffer (e.g., 50 mM Tris pH 8.0, 250 mM NaCl, 2% glycerol, 0.5 mM EDTA, 0.02% w/v sodium azide) using a 3-fold serial dilution from 5 µM. Probe solution (15 nM full-length ß-Catenin, 20 nM FITC labeled peptide in buffer) was prepared and incubated for a period of time, e.g., 5 minutes, and the a volume, e.g., 40 µL per well plated in suitable plate, e.g., a black polystyrene 384-well plate (Corning). Equal volume of the serial diluted peptide was added to the plate and incubated protected from light for 15 minutes prior to read. Reads were performed on a Spectramax M5 (Molecular Devices) in duplicate. Suitable probe was FITC-PEG1-PQ-S5-ILD-S5-HVRRVWR (SEQ ID NO: 1) (hydrocarbon staple formed by two S5 via olefin metathesis) and/or FITC-bA-PQ-S5-ILD-S5-HVRRVWR (SEQ ID NO: 3) (hydrocarbon staple formed by two S5 via olefin metathesis). […] Another peptide, FPO217c (Ac-AR_8ILDAHIM$B5$RVW (SEQ ID NO: 280), with N-terminal proline removed and valine replaced with isoleucine compared to FP0025c) was prepared.

The target in experiment [3] is T2, full-length beta-catenin. The experiment is described as follows: competition FP. How it is done:
as §1

Experiment [4] addresses T2, full-length beta-catenin. The experiment is described as follows: competition FP, grade of FP EC50 (+++: <=100 nM). On the procedure:
as §1

Experiment [5] concerns the target T2, full-length beta-catenin. The experiment is described as follows: competition FP, grade of FP EC50 (+: 500-5000 nM). How it is done: as §1

On to `CC[C@H](C)[C@@H]1NC(=O)C2(NC(=O)[C@H](CCC(N)=O)NC(=O)[C@@H]3CCCN3C(C)=O)CN(C2)C(=O)OCC=CCCCC[C@](C)(C(=O)N[C@@H](Cc2c[nH]cn2)C(=O)N[C@H](C(=O)N[C@@H](CCCNC(=N)N)C(=O)N[C@@H](CCCNC(=N)N)C(=O)N[C@H](C(=O)N[C@@H](Cc2c[nH]c3ccccc23)C(=O)N[C@@H](CCCNC(=N)N)C(N)=O)C(C)C)C(C)C)NC(=O)[C@H](CC(=O)O)NC(=O)[C@H](CC(C)C)NC1=O` (single isomer, unassigned) [FP-0725c, Ac-P-Q-Az-I-L-D-R6-H-V-R-R-V-W-R-NH2], for which the Kd in experiment [1] is around 22 nM.

With `CC[C@H](C)[C@@H]1NC(=O)[C@@]2(NC(=O)[C@H](CCC(N)=O)NC(=O)[C@@H]3CCCN3C(C)=O)CCN(CC=CCCCC[C@](C)(C(=O)N[C@@H](Cc3c[nH]cn3)C(=O)N[C@H](C(=O)N[C@@H](CCCNC(=N)N)C(=O)N[C@@H](CCCNC(=N)N)C(=O)N[C@H](C(=O)N[C@@H](Cc3c[nH]c4ccccc34)C(=O)N[C@@H](CCCNC(=N)N)C(N)=O)C(C)C)C(C)C)NC(=O)[C@H](CC(=O)O)NC(=O)[C@H](CC(C)C)NC1=O)C2` (single isomer, unassigned) [FP-0745a], the Kd in experiment [1] was around 34 nM. As for `CC[C@H](C)[C@@H]1NC(=O)[C@](C)(NC(=O)[C@H](CCC(N)=O)NC(=O)[C@@H]2CCCN2C(C)=O)CCC=CCOC(=O)N2CC[C@](C(=O)N[C@@H](Cc3c[nH]cn3)C(=O)N[C@H](C(=O)N[C@@H](CCCNC(=N)N)C(=O)N[C@@H](CCCNC(=N)N)C(=O)N[C@H](C(=O)N[C@@H](Cc3c[nH]c4ccccc34)C(=O)N[C@@H](CCCNC(=N)N)C(N)=O)C(C)C)C(C)C)(C2)NC(=O)[C@H](CC(=O)O)NC(=O)[C@H](CC(C)C)NC1=O` (single isomer, unassigned) [FP-0765c, Ac-P-Q-R4-I-L-D-PR-H-V-R-R-V-W-R-NH2], in experiment [1], the Kd was around 13 nM.

B1: FP0767c (peptide)
peptide: Ac-PQ[R6]ILD[MC]HVRRVWR-NH2
modifications: staple 3-7; also: carbamate staple (-N(R')-C(O)-O-) by ring-closing olefin metathesis
notes: also called R6/PR
Take B1: the “FP EC50” value in the experiment with full-length beta-catenin [2] lay within 100 to 500 nM. In addition, the EC50 in the experiment with full-length beta-catenin [3] came out at 110 nM. As to Ac-PQ[R5]ILD[MC]HVRRVWR-NH2 (staple 3-7, also called R5/PR) [FP0766c], in the experiment with full-length beta-catenin [3], the EC50 was 20 nM. Further, the “FP EC50” value with full-length beta-catenin [4] was at most 100 nM.

B2: FP0778c (peptide)
peptide: Ac-PQ[MD]ILD[S5]HVRRVWR-NH2
modifications: staple 3-7; not fully specified; also: carbamate staple (-N(R')-C(O)-O-) by ring-closing olefin metathesis
B2 had an EC50 with full-length beta-catenin [3] of 1000 nM. Moreover, the “FP EC50” value with full-length beta-catenin [5] fell in the range of 500 to 5000 nM. Regarding Ac-PQ[S6]ILD[MB(7)]HVRRVWR-NH2 (staple 3-7; reading uncertain) [FP0761c], the “FP EC50” value in the experiment with full-length beta-catenin [2] is 100 to 500 nM. The same molecule came in with an EC50 with full-length beta-catenin [3] of 460 nM.

B3: FP0768c (peptide)
peptide: Ac-PQ[R7]ILD[MC]HVRRVWR-NH2
modifications: staple 3-7; also: carbamate staple (-N(R')-C(O)-O-) by ring-closing olefin metathesis
notes: also called R7/PR
In the case of B3, in the experiment with full-length beta-catenin [2], the “FP EC50” value was 100 to 500 nM. For the same molecule, the EC50 in the experiment with full-length beta-catenin [3] worked out at 150 nM.

The molecule Ac-PQ[R4]ILD[MC]HVRRVWR-NH2 (staple 3-7, also called R4/PR) [FP0765c] yielded an EC50 with full-length beta-catenin [3] of 30 nM. For the same molecule, the “FP EC50” value with full-length beta-catenin [4] is at most 100 nM. Taken in the same sequence, the figures for Ac-PQ[MA]ILD[R6]HVRRVWR-NH2 (staple 3-7, also called Az/R6) [FP0725c] were 80 nM and at most 100 nM.

B4: FP0779c (peptide)
peptide: Ac-PQ[MF]ILD[S5]HVRRVWR-NH2
modifications: staple 3-7; also: carbamate staple (-N(R')-C(O)-O-) by ring-closing olefin metathesis
In the experiment with full-length beta-catenin [3], B4 had an EC50 of 1300 nM. Moreover, in the experiment with full-length beta-catenin [5], the “FP EC50” value is 500 to 5000 nM.

B5: FP0783c (peptide)
peptide: Ac-PQ[MI]ILD[R5]HVRRVWR-NH2
modifications: staple 3-7; also: carbamate staple (-N(R')-C(O)-O-) by ring-closing olefin metathesis
With B5, a half-maximal response with full-length beta-catenin [3] (EC50) required 990 nM. In addition, the “FP EC50” value with full-length beta-catenin [5] is 500 to 5000 nM. Ac-PQ[MC]ILD[R6]HVRRVWR-NH2 (staple 3-7) [FP0745c]: the “FP EC50” value with full-length beta-catenin [2] was in the range of 100 to 500 nM. This molecule yielded an EC50 with full-length beta-catenin [3] of 110 nM. Ac-PQ[S7]ILD[MB(7)]HVRRVWR-NH2 (staple 3-7; reading uncertain, also called S7/PS) [FP0763c]: the “FP EC50” value with full-length beta-catenin [2] was 100 to 500 nM. Besides, in the experiment with full-length beta-catenin [3], the response was half-maximal at 115 nM (EC50).

B6: FP0780c (peptide)
peptide: Ac-PQ[MH]ILD[S5]HVRRVWR-NH2
modifications: staple 3-7; also: carbamate staple (-N(R')-C(O)-O-) by ring-closing olefin metathesis
The molecule B6 returned an EC50 with full-length beta-catenin [3] of 1700 nM. For the same molecule, in the experiment with full-length beta-catenin [5], the “FP EC50” value lay in the range of 500 to 5000 nM.

B7: FP0782c (peptide)
peptide: Ac-PQ[MG]ILD[R5]HVRRVWR-NH2
modifications: staple 3-7; also: carbamate staple (-N(R')-C(O)-O-) by ring-closing olefin metathesis
In the case of B7, the “FP EC50” value with full-length beta-catenin [2] was in the range of 100 to 500 nM. The same molecule yielded an EC50 with full-length beta-catenin [3] of 380 nM.

B8: FP0777c (peptide)
peptide: Ac-PQ[R5]ILD[MI]HVRRVWR-NH2
modifications: staple 3-7; also: carbamate staple (-N(R')-C(O)-O-) by ring-closing olefin metathesis
Take B8: the midpoint of the response with full-length beta-catenin [3], the EC50, lay at 560 nM. For the same molecule, the “FP EC50” value with full-length beta-catenin [5] lay within 500 to 5000 nM.
